Measured values published in patent US20050058651A1 (published 2005).

Target: T1, rat hnRNP M4 expressed in P388D1 mouse macrophage cells by transient transfection of hnRNP M4/pBK-CMV (rat, UniProt Q62826 2-690)
T1 construct: also called pBK-CMV/hnRNP M4
T1 sequence: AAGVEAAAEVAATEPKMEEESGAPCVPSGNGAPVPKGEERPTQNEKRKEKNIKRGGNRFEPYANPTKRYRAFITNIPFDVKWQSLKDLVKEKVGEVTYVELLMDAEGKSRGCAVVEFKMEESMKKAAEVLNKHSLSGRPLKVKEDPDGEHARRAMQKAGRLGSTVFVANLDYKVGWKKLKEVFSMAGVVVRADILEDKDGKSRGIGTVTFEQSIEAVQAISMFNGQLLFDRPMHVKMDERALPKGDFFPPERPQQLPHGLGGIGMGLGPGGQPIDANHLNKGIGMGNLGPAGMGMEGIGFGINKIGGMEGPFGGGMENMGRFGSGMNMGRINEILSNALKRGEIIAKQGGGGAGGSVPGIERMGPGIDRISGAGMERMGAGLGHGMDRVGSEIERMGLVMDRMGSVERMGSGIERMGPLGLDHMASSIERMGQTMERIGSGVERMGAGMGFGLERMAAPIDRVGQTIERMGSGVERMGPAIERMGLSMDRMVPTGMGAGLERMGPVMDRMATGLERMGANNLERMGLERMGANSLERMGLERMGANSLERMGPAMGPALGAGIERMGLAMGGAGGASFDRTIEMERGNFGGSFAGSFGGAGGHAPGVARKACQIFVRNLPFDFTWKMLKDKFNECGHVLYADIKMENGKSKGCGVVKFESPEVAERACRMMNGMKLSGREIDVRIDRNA
Experiment: 125I labeled CEA binding/uptake by P388D1 cells 48 h after transient transfection, compared with matching vector
Text: To begin to elucidate the mechanism underlying the intracellular signaling associated with KC activation and CEA binding, the hnRNP M4 cDNA in the pBK-CMV expression vector was introduced into CEA non-responsive macrophage cell lines. The hnRNP M4 transcription in this system was driven by the CMV promoter. […] An approximately 5 times increase in CEA uptake was observed on transfecting […] of hnRNP M4/pBK-CMV plasmid. This fact implies that hnRNP M4 cDNA can initiate CEA binding in P388D1 […] macrophage cell line and can act as a receptor for CEA. […] At present, the reasons for lack of response by IC21 cells are not known.
Transient transfection of hnRNP M4 plasmid was carried out in P388D1 mouse lymphoid macrophage, IC21 mouse peritoneal and CRL2192 rat alveolar macrophage cell lines. As a positive control were used rat KC. The P388D1 cells were propagated in DMEM medium supplemented with 10% horse serum. The CRL 2192 cells were grown in F-12K medium (Kaighn's modification) supplemented with 15% FBS. The IC21 cells were grown in RPM1 1640 ATCC modified medium supplemented with 10% FBS. All cells were maintained at 37° C. in 5% CO₂ atmosphere. All tissue culture products were obtained from Life Technologies, USA. Cells for transfection were plated at 2-2.5.10⁵ cells per well in six well tissue culture clusters (Nunc products, Germany). […]

fold increase in CEA uptake (against vector-transfected cells): ~5 times
B1: carcinoembryonic antigen (CEA) (ligand, UniProt P06731 35-685, looked up)
chain: KLTIESTPFNVAEGKEVLLLVHNLPQHLFGYSWYKGERVDGNRQIIGYVIGTQQATPGPAYSGREIIYPNASLLIQNIIQNDTGFYTLHVIKSDLVNEEATGQFRVYPELPKPSISSNNSKPVEDKDAVAFTCEPETQDATYLWWVNNQSLPVSPRLQLSNGNRTLTLFNVTRNDTASYKCETQNPVSARRSDSVILNVLYGPDAPTISPLNTSYRSGENLNLSCHAASNPPAQYSWFVNGTFQQSTQELFIPNITVNNSGSYTCQAHNSDTGLNRTTVTTITVYAEPPKPFITSNNSNPVEDEDAVALTCEPEIQNTTYLWWVNNQSLPVSPRLQLSNDNRTLTLLSVTRNDVGPYECGIQNELSVDHSDPVILNVLYGPDDPTISPSYTYYRPGVNLSLSCHAASNPPAQYSWLIDGNIQQHTQELFISNITEKNSGLYTCQANNSASGHSRTTVKTITVSAELPKPSISSNNSKPVEDKDAVAFTCEPEAQNTTYLWWVNGQSLPVSPRLQLSNGNRTLTLFNVTRNDARAYVCGIQNSVSANRSDPVTLDVLYGPDTPIISPPDSSYLSGANLNLSCHSASNPSPQYSWRINGIPQQHTQVLFIAKITPNNNGTYACFVSNLATGRNNSIVKSITVSASGTSPGLSA
modifications: 125I label in the phage-lift and cell binding assays; unlabeled soluble CEA in the blot overlay
notes: also called soluble CEA; 125I labeled CEA
